Drawing on patent publication US8822645B2, “Prostaglandin E2 dual variable domain immunoglobulins and uses thereof” (AbbVie Inc., priority 2008, dated 2014), this text covers EC50 for one molecule.

The nature of this experiment: PGE2-biotinamide ELISA (PGE2 binding). The conditions noted are these: PGE2 VD in C-terminal position, read-out: Direct Bind ELISA C-terminal VD EC50. The method in brief:
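Antibody or DVD-Ig (1 µg/ml) captured on anti-host Fc IgG-coated plates for 1 h at room temperature, then titrated with PGE2-biotinamide serially diluted from 30 nM for 1 h. Binding detected with streptavidin-polyHRP and TMB, absorbance read at 450 nm; EC50 from the titration curve.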
For orientation: In an ELISA, binding on a coated surface is turned into a signal by an enzyme label.

B1: DVD152: DVD-Ig construct listed in Table 4 (antibody)
VH: EVQLQESGPGLVRPSQTLSLTCTVSGYSITSDHAWSWVRQPPGRGLEWIGYISYSGITTYNPSLKSRVTMLRDTSKNQFSLRLSSVTAADTAVYYCARSLARTTAMDYWGQGSLVTVSSASTKGPEVQLVQSGAEVKKPGASVKVSCKASGYTFTKYWLGWVRQAPGQGLEWMGDIYPGYDYTHYNEKFKDRVTLTTDTSTSTAYMELRSLRSDDTAVYYCARSDGSSTYWGQGTLVTVSS
VL: DIQMTQSPSSLSASVGDRVTITCRASQDISSYLNWYQQKPGKAPKLLIYYTSRLHSGVPSRFSGSGSGTDFTFTISSLQPEDIATYYCQQGNTLPYTFGQGTKVEIKRTVAAPDVLMTQTPLSLPVTPGEPASISCTSSQNIVHSNGNTYLEWYLQKPGQSPQLLIYKVSNRFSGVPDRFSGSGSGTDFTLKISRVEAEDVGVYYCFQVSHVPYTFGGGTKVEIKR
Regarding B1, the 50% effective concentration (EC50) (as a rule, the concentration giving half of the maximal effect) worked out at 1.65 nM.
